Measured values: patent US20230250157A1

Biological target: sarbecoviruses tested (pseudovirus spikes)
Assay: cell-based or functional assay

B1: HSW-2 (antibody, V domains shown)
VH: QVQLQQSGPELVKPGASVKISCKASGYVFSTSWMSWVKQRPGEGPEWIGRIYPRDGHSSSTGKFKDKATLTADKSSNTAYIHLSSLTSEDSAVYFCARDYGYYYFDYWGQGTTLTVSS
VL: DIQMTQSPASLSASVGEAVTITCRLSENVYSFLAWYQQKQGKSPQLLVYRAKTLAEGVPSRFSGSGSGTQFSLKINSLQPEDFGTYYCQHHYGTPPTFGGGTKLEIK
pseudovirus neutralization IC50: > 10 µg/mL

B2: HSW-1 (antibody, V domains shown)
VH: QVQLQQPGAELVKPGTSMKLSCKASGYTFTSYWMHWVKQRPGQGLEWIGMIHPNSGSTKYNENFKSKATLTVDKSSSTAYMQFSSLTSEDSAVYYCVRSGSYYGTTYDYFDYWGQGTTLTVSS
VL: DIVLTQSPASLAVSLGQRATISCRASESVNIYGNSFMHWYQQKPGQPPKLLIFRASNLESGIPVRFSGSGSRTDFTLTINPVEADDVATYYCHQSNEDPFTFGSGTKLEIK
pseudovirus neutralization IC50: > 10 µg/mL
